Results: patent publication US11795460B2, “Compositions and methods for TTR gene editing and treating ATTR amyloidosis” (Intellia Therapeutics, Inc., priority 2017, dated 2023)
Strand notation (5' to 3'): a small letter for the sugar, then the base; units joined by * are phosphorothioate-linked, units joined directly phosphodiester-linked; [ ] holds rarer units or linkages, { } end groups; capitals alone tell only the bases. m = 2'-O-methyl; r = 2'-OH (RNA)

Experiments:
[1] = test system: TTR; assay: TTR editing in primary cyno hepatocytes electroporated with Spy Cas9 protein and dgRNAs (Tables 10, 11); format: cell-based, cynomolgus monkey; settings: Table 10; primary cyno hepatocytes electroporated with Spy Cas9 protein (RNP) and dgRNAs
Outline: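 Primary human or cynomolgus hepatocytes electroporated (Lonza P3 buffer, program EX-147) with Spy Cas9 RNP carrying pre-annealed crRNA/trRNA dual guides. Genomic DNA harvested at 24, 48 or 72 h; target amplicons sequenced by Illumina MiSeq. Percent editing = reads with indels or substitutions over total reads.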

[2] = test system: TTR; assay: TTR editing in primary human hepatocytes treated with LNP formulated Spy Cas9 mRNA (SEQ ID NO: 2) and sgRNAs (Table 16); format: cell-based; settings: LNP formulated Spy Cas9 mRNA (SEQ ID NO: 2) and sgRNA, 72 hours
Experimental: (§1) Primary liver hepatocytes. Primary human liver hepatocytes (PHH) and primary cynomolgus liver hepatocytes (PCH) (Gibco) were cultured per the manufacturer's protocol (Invitrogen, protocol 11.28.2012). In brief, the cells were thawed and resuspended in hepatocyte thawing medium with supplements (Gibco, Cat. CM7000) followed by centrifugation at 100 g for 10 minutes for human and 80 g for 4 minutes for cyno. The supernatant was discarded and the pelleted cells resuspended in hepatocyte plating medium plus supplement pack (Invitrogen, Cat. A1217601 and CM3000). Cells were counted and plated on Bio-coat collagen I coated 96-well plates (ThermoFisher, Cat. 877272) at a density of 33,000 cells/well for human or 60,000 cells/well for cyno (or 65,000 cells/well when assaying effects on TTR protein, described further below). Plated cells were allowed to settle and adhere for 6 or 24 hours in a tissue culture incubator at 37° C. and 5% CO2 atmosphere. After incubation cells were checked for monolayer formation and media was replaced with hepatocyte culture medium with serum-free supplement pack (Invitrogen, Cat. A1217601 and CM4000).
(§2) In general, the lipid nanoparticle components were dissolved in 100% ethanol with the lipid component of various molar ratios. The RNA cargos were dissolved in 25 mM citrate, 100 mM NaCl, pH 5.0, resulting in a concentration of RNA cargo of approximately 0.45 mg/mL. The LNPs were formulated with a lipid amine to RNA phosphate (N:P) molar ratio of about 4.5 or about 6, with the ratio of mRNA to gRNA at 1:1 by weight.
(§3) The LNPs were formed by microfluidic mixing of the lipid and RNA solutions using a Precision Nanosystems NanoAssemblr™ Benchtop Instrument, according to the manufacturer's protocol. A 2:1 ratio of aqueous to organic solvent was maintained during mixing using differential flow rates. After mixing, the LNPs were collected, diluted in water (approximately 1:1 v/v), held for 1 hour at room temperature, and further diluted with water (approximately 1:1 v/v) before final buffer exchange. The final buffer exchange into 50 mM Tris, 45 mM NaCl, 5% (w/v) sucrose, pH 7.5 (TSS) was completed with PD-10 desalting columns (GE). If required, formulations were concentrated by centrifugation with Amicon 100 kDa centrifugal filters (Millipore). The resulting mixture was then filtered using a 0.2 μm sterile filter. The final LNP was stored at −80° C. until further use.
(§4) To quantitatively determine the efficiency of editing at the target location in the genome, sequencing was utilized to identify the presence of insertions and deletions introduced by gene editing.
(§5) Primers were designed around the target site within the gene of interest (e.g. TTR), and the genomic area of interest was amplified.
(§6) Additional PCR was performed per the manufacturer's protocols (Illumina) to add chemistry for sequencing. The amplicons were sequenced on an Illumina MiSeq instrument. The reads were aligned to a reference genome (e.g., the human reference genome (hg38), the cynomologus reference genome (mf5), the rat reference genome (rn6), or the mouse reference genome (mm10)) after eliminating those having low quality scores. The resulting files containing the reads were mapped to the reference genome (BAM files), where reads that overlapped the target region of interest were selected and the number of wild type reads versus the number of reads which contain an insertion, substitution, or deletion was calculated.
(§7) The editing percentage (e.g., the “editing efficiency” or “percent editing” or “indel frequency”) is defined as the total number of sequence reads with insertions/deletions (“indels”) or substitutions over the total number of sequence reads, including wild type.
(§8) Lipid nanoparticle formulations of modified sgRNAs targeting human TTR and the cyno matched sgRNA sequences were tested on primary human hepatocytes and primary cyno hepatocytes in a dose response curve. Primary human and cyno hepatocytes were plated as described in Example 1. […]

[3] = test system: TTR; assay: TTR editing in primary cyno hepatocytes treated with LNP formulated Spy Cas9 mRNA (SEQ ID NO: 2) and sgRNAs (Tables 17, 18); format: cell-based, cynomolgus monkey; settings: for 12.5 ng mRNA, 3.9 nM sgRNA Avg % Edit: Table 17, LNP formulated Spy Cas9 mRNA (SEQ ID NO: 2) and sgRNA, 72 hours
Experimental: as §1, §2, §3, §4, §5, §6, §7, §8

Row | Molecule | 12.5 ng mRNA, 3.9 nM sgRNA Avg % Edit [2] | 12.5 ng mRNA, 3.9 nM sgRNA Avg % Edit [3] | also measured
1 | GUGAGUCUGGAGAGCUGCAU (tested as dual guide RNA, chemistry not given here) [CR003360] | – | – | Avg % Deletion [1]: 0.42%; Avg % Edit [1]: 29.47%; Avg % Insert [1]: 29.05%
2 | GCUGCAUGGGCUCACAACUG (tested as dual guide RNA, chemistry not given here) [CR003361] | – | – | Avg % Deletion [1]: 0.08%; Avg % Edit [1]: 4.53%; Avg % Insert [1]: 4.46%
3 | AUGCAGCUCUCCAGACUCAC (tested as dual guide RNA, chemistry not given here) [CR003358] | – | – | Avg % Deletion [1]: 1.46%; Avg % Edit [1]: 20.47%; Avg % Insert [1]: 19.01%
4 | AGUGAGUCUGGAGAGCUGCA (tested as dual guide RNA, chemistry not given here) [CR003359] | – | – | Avg % Deletion [1]: 5.51%; Avg % Edit [1]: 46.17%; Avg % Insert [1]: 40.66%
5 | CAUUGAUGGCAGGACUGCCU (tested as dual guide RNA, chemistry not given here) [CR003347] | – | – | Avg % Deletion [1]: 0.25%; Avg % Edit [1]: 72.41%; Avg % Insert [1]: 72.15%
6 | G000481: TTR sgRNA modified sequence, Human, SEQ ID No. 88; guide sequence of CR003345 (nucleic acid) guide: mU*mC*mU*rArGrArArCrUrUrUrGrArCrCrArUrCrArGrGrUrUrUrUrArGrAmGmCmUmAmGmAmAmAmUmAmGmCrArArGrUrUrArArArArUrArArGrGrCrUrArGrUrCrCrGrUrUrArUrCrAmAmCmUmUmGmAmAmAmAmAmGmUmGmGmCmAmCmCmGmAmGmUmCmGmGmUmGmCmU*mU*mU*mU | 24.37% | 49.20% | –
7 | G000488: TTR sgRNA modified sequence, Human, SEQ ID No. 95; guide sequence of CR003346 (nucleic acid) guide: mA*mA*mA*rGrUrUrCrUrArGrArUrGrCrUrGrUrCrCrGrGrUrUrUrUrArGrAmGmCmUmAmGmAmAmAmUmAmGmCrArArGrUrUrArArArArUrArArGrGrCrUrArGrUrCrCrGrUrUrArUrCrAmAmCmUmUmGmAmAmAmAmAmGmUmGmGmCmAmCmCmGmAmGmUmCmGmGmUmGmCmU*mU*mU*mU | 44.80% | – | –
8 | G000482: TTR sgRNA modified sequence, Human, SEQ ID No. 89; guide sequence of CR003365 (nucleic acid) guide: mU*mG*mU*rArGrArArGrGrGrArUrArUrArCrArArArGrGrUrUrUrUrArGrAmGmCmUmAmGmAmAmAmUmAmGmCrArArGrUrUrArArArArUrArArGrGrCrUrArGrUrCrCrGrUrUrArUrCrAmAmCmUmUmGmAmAmAmAmAmGmUmGmGmCmAmCmCmGmAmGmUmCmGmGmUmGmCmU*mU*mU*mU | 19.10% | 26.13% | –
9 | G000494: TTR sgRNA modified sequence, Human, SEQ ID No. 101; guide sequence of CR003360 (nucleic acid) guide: mG*mU*mG*rArGrUrCrUrGrGrArGrArGrCrUrGrCrArUrGrUrUrUrUrArGrAmGmCmUmAmGmAmAmAmUmAmGmCrArArGrUrUrArArArArUrArArGrGrCrUrArGrUrCrCrGrUrUrArUrCrAmAmCmUmUmGmAmAmAmAmAmGmUmGmGmCmAmCmCmGmAmGmUmCmGmGmUmGmCmU*mU*mU*mU | 6.37% | 14.30% | –
10 | G000571: TTR sgRNA modified sequence, Human, SEQ ID No. 112; guide sequence of CR005301 (nucleic acid) guide: mG*mU*mC*rArCrArGrArArArCrArCrUrCrArCrCrGrUrGrUrUrUrUrArGrAmGmCmUmAmGmAmAmAmUmAmGmCrArArGrUrUrArArArArUrArArGrGrCrUrArGrUrCrCrGrUrUrArUrCrAmAmCmUmUmGmAmAmAmAmAmGmUmGmGmCmAmCmCmGmAmGmUmCmGmGmUmGmCmU*mU*mU*mU | – | 20.20% | –
11 | G000496: TTR sgRNA modified sequence, Human, SEQ ID No. 103; guide sequence of CR005304 (nucleic acid) guide: mG*mG*mC*rCrGrUrGrCrArUrGrUrGrUrUrCrArGrArArGrUrUrUrUrArGrAmGmCmUmAmGmAmAmAmUmAmGmCrArArGrUrUrArArArArUrArArGrGrCrUrArGrUrCrCrGrUrUrArUrCrAmAmCmUmUmGmAmAmAmAmAmGmUmGmGmCmAmCmCmGmAmGmUmCmGmGmUmGmCmU*mU*mU*mU | 30.73% | – | –
12 | G000502: TTR Cyno specific sgRNA modified sequence, SEQ ID No. 114; guide sequence of CR000689; cross homologous between mouse and cyno (nucleic acid) guide: mA*mC*mA*rCrArArArUrArCrCrArGrUrCrCrArGrCrGrGrUrUrUrUrArGrAmGmCmUmAmGmAmAmAmUmAmGmCrArArGrUrUrArArArArUrArArGrGrCrUrArGrUrCrCrGrUrUrArUrCrAmAmCmUmUmGmAmAmAmAmAmGmUmGmGmCmAmCmCmGmAmGmUmCmGmGmUmGmCmU*mU*mU*mU | – | – | 12.5 ng mRNA, 3.9 nM sgRNA % Edit ([3]; LNP formulated Spy Cas9 mRNA (SEQ ID NO: 2) and cyno matched sgRNAs, 72 hours post treatment): 80.70%
13 | G000487: TTR sgRNA modified sequence, Human, SEQ ID No. 94; guide sequence of CR003357 (nucleic acid) guide: mU*mU*mC*rUrUrUrGrGrCrArArCrUrUrArCrCrCrArGrGrUrUrUrUrArGrAmGmCmUmAmGmAmAmAmUmAmGmCrArArGrUrUrArArArArUrArArGrGrCrUrArGrUrCrCrGrUrUrArUrCrAmAmCmUmUmGmAmAmAmAmAmGmUmGmGmCmAmCmCmGmAmGmUmCmGmGmUmGmCmU*mU*mU*mU | 17.37% | – | –
14 | G000489: TTR sgRNA modified sequence, Human, SEQ ID No. 96; guide sequence of CR003344 (nucleic acid) guide: mU*mU*mU*rGrArCrCrArUrCrArGrArGrGrArCrArCrUrGrUrUrUrUrArGrAmGmCmUmAmGmAmAmAmUmAmGmCrArArGrUrUrArArArArUrArArGrGrCrUrArGrUrCrCrGrUrUrArUrCrAmAmCmUmUmGmAmAmAmAmAmGmUmGmGmCmAmCmCmGmAmGmUmCmGmGmUmGmCmU*mU*mU*mU | 16.85% | 31.87% | –
15 | G000499: TTR sgRNA modified sequence, Human, SEQ ID No. 106; guide sequence of CR005303 (nucleic acid) guide: mU*mG*mA*rArUrCrCrArArGrUrGrUrCrCrUrCrUrGrArGrUrUrUrUrArGrAmGmCmUmAmGmAmAmAmUmAmGmCrArArGrUrUrArArArArUrArArGrGrCrUrArGrUrCrCrGrUrUrArUrCrAmAmCmUmUmGmAmAmAmAmAmGmUmGmGmCmAmCmCmGmAmGmUmCmGmGmUmGmCmU*mU*mU*mU | 16.07% | 14.63% | –
16 | G000486: TTR sgRNA modified sequence, Human, SEQ ID No. 93; guide sequence of CR003339 (nucleic acid) guide: mA*mC*mA*rCrArArArUrArCrCrArGrUrCrCrArGrCrArGrUrUrUrUrArGrAmGmCmUmAmGmAmAmAmUmAmGmCrArArGrUrUrArArArArUrArArGrGrCrUrArGrUrCrCrGrUrUrArUrCrAmAmCmUmUmGmAmAmAmAmAmGmUmGmGmCmAmCmCmGmAmGmUmCmGmGmUmGmCmU*mU*mU*mU | 61.33% | – | –
17 | G000483: TTR sgRNA modified sequence, Human, SEQ ID No. 90; guide sequence of CR005298 (nucleic acid) guide: mU*mC*mC*rArCrUrCrArUrUrCrUrUrGrGrCrArGrGrArGrUrUrUrUrArGrAmGmCmUmAmGmAmAmAmUmAmGmCrArArGrUrUrArArArArUrArArGrGrCrUrArGrUrCrCrGrUrUrArUrCrAmAmCmUmUmGmAmAmAmAmAmGmUmGmGmCmAmCmCmGmAmGmUmCmGmGmUmGmCmU*mU*mU*mU | 7.37% | 0.73% | –
18 | G000480: TTR sgRNA modified sequence, Human, SEQ ID No. 87; guide sequence of CR003353 (nucleic acid) guide: mA*mA*mA*rGrGrCrUrGrCrUrGrArUrGrArCrArCrCrUrGrUrUrUrUrArGrAmGmCmUmAmGmAmAmAmUmAmGmCrArArGrUrUrArArArArUrArArGrGrCrUrArGrUrCrCrGrUrUrArUrCrAmAmCmUmUmGmAmAmAmAmAmGmUmGmGmCmAmCmCmGmAmGmUmCmGmGmUmGmCmU*mU*mU*mU | 59.33% | 0.73% | –
